Assay results as given in US11278600B2, “Human alpha-galactosidase variants” (Codexis, Inc., priority 2014, dated 2022).
Substitutions are numbered along the chain they refer to.

B1: 383 (protein)
chain: LDNGLARTPTMGWLHWERFMCNLDCQEEPDSCISEKLFMEMAERMVSEGWKDAGYEYLCIDDCWMAPQRDSEGRLQADPQRFPHGIRQLANCVHSKGLKLGIYADVGNKTCAGFPGSFGYYDIDAQTFADWGVDLLKFDGCYCDSLENLADGYKHMSLALNRTGRSIVYSCEWPLYMWPFQKPNYTEIRQYCNHWRNFADIDDSWKSIKSILDWTSRNQERIVDVAGPGGWNDPDMLVIGNFGLSWDQQVTQMALWAIMAAPLFMSNDLRHISPQAKALLQDKDVIAINQDPLGKQGYQLRKGDNFEVWERPLSGDAWAVAIINRQEIGGPRSYTIPVASLGKGVACNPACFITQLLPVKRQLGFYNWTSRLKSHINPTGTVLLQLENTMQMSLKDLL
modifications: Synthetic Polypeptide sequence of Variant No. 383 of mature Human GLA
B2: 384 (protein)
chain: B1 chain with C92V
modifications: Synthetic Polypeptide sequence of Variant No. 384 of mature Human GLA
B3: 385 (protein)
chain: B1 chain with C92A
modifications: Synthetic Polypeptide sequence of Variant No. 385 of mature Human GLA
B4: 386 (protein)
chain: B1 chain with C92Y, H94R
modifications: Synthetic Polypeptide sequence of Variant No. 386 of mature Human GLA
B5: 387 (protein)
chain: B1 chain with C92Y, V93T
modifications: Synthetic Polypeptide sequence of Variant No. 387 of mature Human GLA
B6: 360 (protein)
chain: B1 chain with R44E, C92Y, K206A
modifications: Synthetic Polypeptide sequence of Variant No. 360 of mature Human GLA

Test: HTP-analysis of supernatants pretreated with base (MUGal hydrolysis)
Assay type: biochemical
Conditions: activity of the variant/activity of Rd4BB (SEQ ID NO: 15); challenge at pH 9.65
In short: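 Fluorescence of released 4-MU (Ex 355 nm, Em 448 nm) after carbonate quench reports MUGal hydrolysis by GLA variants secreted from INVSc1 yeast. Before the acidic (pH 4.3-4.8) 30-180 min reaction at 37° C, supernatants had been pre-incubated at pH 7.0-9.7 for 1-18 h at 37° C.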

Question: Which “Relative Activity of GLA Variants After Challenge at pH 9.65” value (from here on “Relative Activity … at pH 9.65”) does the source give for B1 here?
Answer: The value was “− (<0.5 relative activity over Rd4BB (SEQ ID NO: 15))”.

Question: With B2 as the molecule, how does the “Relative Activity … at pH 9.65” value read?
Answer: The value was “− (<0.5 relative activity over Rd4BB (SEQ ID NO: 15))”.

Question: For B3, which “Relative Activity … at pH 9.65” value is on record?
Answer: Its value is “− (<0.5 relative activity over Rd4BB (SEQ ID NO: 15))”.

Question: With B4 as the molecule, how does the “Relative Activity … at pH 9.65” value read?
Answer: Its value is “− (<0.5 relative activity over Rd4BB (SEQ ID NO: 15))”.

Question: With B5 as the molecule, how does the “Relative Activity … at pH 9.65” value read?
Answer: Its value is “− (<0.5 relative activity over Rd4BB (SEQ ID NO: 15))”.

Question: For B6, which “Relative Activity … at pH 9.65” value is on record?
Answer: Its value is “+ (0.5 to 1.5 relative activity over Rd4BB (SEQ ID NO: 15))”.

Test: HTP-analysis of yeast culture supernatants, no challenge (MUGal hydrolysis)
Assay type: biochemical
Conditions: activity of the variant/activity of Rd4BB (SEQ ID NO: 15)
In short: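 GLA variants expressed in yeast INVSc1, secreted into SD-Ura broth over 66-84 h at 30° C; clarified supernatants tested without challenge. Supernatant mixed with McIlvaine buffer pH 4.8 and 2 mM MUGal (citrate/KCl, pH 4.6), 37° C for 30-180 min, carbonate-quenched, fluorescence Ex 355/Em 448 nm.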

Question: Which “Relative Activity of GLA Variants After No Challenge (NC)” value does the source give for B1 here?
Answer: Its value is “+ (0.5 to 1.5 relative activity over Rd4BB (SEQ ID NO: 15))”.

Question: With B2 as the molecule, how does the “Relative Activity of GLA Variants After No Challenge (NC)” value read?
Answer: The value was “+ (0.5 to 1.5 relative activity over Rd4BB (SEQ ID NO: 15))”.

Question: With B3 as the molecule, how does the “Relative Activity of GLA Variants After No Challenge (NC)” value read?
Answer: The value was “+ (0.5 to 1.5 relative activity over Rd4BB (SEQ ID NO: 15))”.

Question: With B4 as the molecule, how does the “Relative Activity of GLA Variants After No Challenge (NC)” value read?
Answer: The value was “− (<0.5 relative activity over Rd4BB (SEQ ID NO: 15))”.

Question: With B5 as the molecule, how does the “Relative Activity of GLA Variants After No Challenge (NC)” value read?
Answer: Its value is “+ (0.5 to 1.5 relative activity over Rd4BB (SEQ ID NO: 15))”.

Question: With B6 as the molecule, how does the “Relative Activity of GLA Variants After No Challenge (NC)” value read?
Answer: The value was “+ (0.5 to 1.5 relative activity over Rd4BB (SEQ ID NO: 15))”.

Test: HTP-analysis of supernatants pretreated with acid (MUGal hydrolysis)
Assay type: biochemical
Conditions: activity of the variant/activity of Rd4BB (SEQ ID NO: 15); challenge at pH 3.7
In short: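 Supernatants from INVSc1 yeast secreting GLA variants were challenged at 37° C. for 1-3 h in McIlvaine buffer at pH 3.3-4.3. Residual activity was then measured on 4 mM MUGal substrate stock at pH 4.8 with citrate buffer pH 4.3, over 30-180 min at 37° C. Reactions were quenched with sodium carbonate and read by fluorescence (Ex 355/Em 448 nm).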

Question: With B1 as the molecule, how does the “Relative Activity of GLA Variants After Challenge at pH 3.7” value (from here on “Relative Activity … at pH 3.7”) read?
Answer: Its value is “− (<0.5 relative activity over Rd4BB (SEQ ID NO: 15))”.

Question: Which “Relative Activity … at pH 3.7” value does the source give for B2 here?
Answer: Its value is “+ (0.5 to 1.5 relative activity over Rd4BB (SEQ ID NO: 15))”.

Question: Which “Relative Activity … at pH 3.7” value does the source give for B3 here?
Answer: The value was “+ (0.5 to 1.5 relative activity over Rd4BB (SEQ ID NO: 15))”.

Question: With B4 as the molecule, how does the “Relative Activity … at pH 3.7” value read?
Answer: Its value is “+ (0.5 to 1.5 relative activity over Rd4BB (SEQ ID NO: 15))”.

Question: For B5, which “Relative Activity … at pH 3.7” value is on record?
Answer: Its value is “+ (0.5 to 1.5 relative activity over Rd4BB (SEQ ID NO: 15))”.

Question: For B6, which “Relative Activity … at pH 3.7” value is on record?
Answer: The value was “+ (0.5 to 1.5 relative activity over Rd4BB (SEQ ID NO: 15))”.
